Results from article PMC10671530, “Linking New Alleles at the Oscillator Loci to Flowering and Expansion of Asian Rice”.

Target: OsCCA1 DNA-binding (R/MYB) domain (Oryza sativa (cDNA of Heidao), UniProt A0A0P0XBU0 1-138)
Assay: EMSA; EMSA: 10 uL with 2 uL 5x binding buffer (Invitrogen), 1.3 ug protein, 20 pmol probe, 23 C, 20 min; 10% native PAGE, 100 V about 70 min; gel stained for DNA and
Details: protein: recombinant; (pCold vector, Ni Sepharose)

OsCCA1 DNA-binding (R/MYB) domain, sequence (A0A0P0XBU0 1-138): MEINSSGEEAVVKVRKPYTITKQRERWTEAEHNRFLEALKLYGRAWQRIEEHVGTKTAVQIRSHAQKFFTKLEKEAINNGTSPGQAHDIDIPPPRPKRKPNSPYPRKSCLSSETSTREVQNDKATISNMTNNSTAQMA

| Binder | binding result |
| --- | --- |
| OsPRR1-p1 (EE probe) (dsDNA) DNA 1: GTAGGGGGAGGAAAATATCCTGTGCCAGTAG DNA 2: CTACTGGCACAGGATATTTTCCTCCCCCTAC | binds |
| probe 9 (OsPRR1_a, 12-nt deletion) (dsDNA) DNA 1: CCAACGCCGCCGCCGC DNA 2: GCGGCGGCGGCGTTGG | no binding |
| OsPRR1-p2 (EE probe) (dsDNA) DNA 1: GTTTCGTTTATTACACCGCCCCGG DNA 2: CCGGGGCGGTGTAATAAACGAAAC | binds |
| OsPRR1-p3 (EE probe) (dsDNA) DNA 1: CATCTGGCTTAACCACGCCCGGCTCTC DNA 2: GAGAGCCGGGCGTGGTTAAGCCAGATG | binds |
